The record followed here is patent publication US20070105162A1, “Monovalent avidin and streptavidin compositions” (Massachusetts Institute of Technology, priority 2005, published 2007).

A short description of this experiment: Biotin binding of avidin triple mutant (D4). As to the method:
After incubation at room temperature for 20 hr, the protein is precipitated by adding 50 μL to 200 μL 0.2 M ZnSO4 followed by 200 μL 0.2 M NaOH. The protein precipitate is pelleted by centrifugation at 16,500 g for 5 min. The biotin bound by D4 is calculated from the total ^3H-biotin added minus the ^3H-biotin in the supernatant. The Kd is obtained using a nonlinear regression analysis (one-site binding hyperbola) with SigmaPlot (Systat Software; Point Richmond, Calif.).
Methods provided in the Methods section above are used to make and test the monovalent avidin. We produce an avidin tetramer consisting of three subunits unable to bind biotin and one subunit that binds biotin as well as wild-type avidin. A triple mutant N12A, S16D, T35A is produced. […] The binding of this triple mutant (composed of “Dead” subunits-D) is so weak that it is difficult to measure. To generate monovalent avidin the wild-type subunit is first tagged with a His6-tag (“Alive” subunit-A). Then D and A subunits are combined at a molar ratio of 3:1 in guanidinium hydrochloride and refolded by rapidly diluting the mixture into PBS. This refold generates a mix of avidin tetramers of different compositions.

B1: D4 avidin: Avidin tetramer of four Dead subunits (N12A, S16D, T35A, SEQ ID NO:18) (protein)
chain: ARKCSLTGKWTADLGDNMTIGAVNSRGEFTGTYIAAVTATSNEIKESPLHGTQNTINKRTQPTFGFTVNWKFSESTTVFTGQCFIDRNGKEVLKTMWLLRSSVNDIGDDWKATRVGINIFTRLRTQKE
modifications: tetramer
B1: the “biotin binding of avidin triple mutant” value is “negligible biotin binding”.
